Numbering of substitutions follows the chain as printed. Names and notes keep the numbering of the source. Values joined by “and” are separate entries in the source; they are usually repeats but may differ in a detail not shown here. Identical values can stand only once.
T1: PEX13 SH3-CTR (residues 261-403) (human, UniProt Q92968 261-403)
T1 construct: 15N-labelled in the NMR titrations, unlabelled as ITC titrant; source: E. coli BL21 (DE3), purified (Ni-NTA, SUMO cleavage, reverse Ni-NTA, SEC); not shown: His6-SUMO, N-terminal, cleaved
T1 sequence (looked up): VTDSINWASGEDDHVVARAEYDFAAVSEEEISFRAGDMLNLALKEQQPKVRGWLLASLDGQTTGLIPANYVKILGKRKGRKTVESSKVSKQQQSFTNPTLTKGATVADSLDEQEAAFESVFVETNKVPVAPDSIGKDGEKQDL

B1: PEX5 W1 peptide (peptide)
peptide: ALSENWAQEFLAAGD
notes: 15-mer with the W1 (di)aromatic motif of human PEX5; source: synthetic peptide, bought: PSL (Peptide Specialty Laboratories GmbH)
B2: PEX5 W1 peptide (peptide)
peptide: ALSENWAQEFLAAGD
notes: 15-mer with the W1 WxxxF motif of human PEX5; source: synthetic peptide, bought: PSL (Peptide Specialty Laboratories)
B3: PEX13-CTR double cysteine mutant I333C/A376C (IA/CC) (domain or fragment, human, UniProt Q92968 261-403, looked up)
chain: T1 sequence (looked up) with I73C, A116C
notes: the two states are told apart by the assay; 15N-labelled; also called PEX13 CTR IA/CC; PEX13-CTR IA/CC; source: E. coli BL21 (DE3), purified (Ni-NTA, SUMO cleavage, reverse Ni-NTA, SEC); not shown: His6-SUMO, N-terminal, cleaved
B4: PEX5 W6 peptide (peptide)
peptide: GTSDAWVDQFTRPVN
notes: 15-mer with the W6 (di)aromatic motif of human PEX5; source: synthetic peptide, bought: PSL (Peptide Specialty Laboratories GmbH)
B5: PEX5 W6 peptide (peptide)
peptide: GTSDAWVDQFTRPVN
notes: 15-mer with the W6 WxxxF motif of human PEX5; source: synthetic peptide, bought: PSL (Peptide Specialty Laboratories)
B6: PEX5 W7 peptide (peptide)
peptide: AEAHPWLSDYDDLTS
notes: 15-mer with the W7 WxxxY motif of human PEX5; source: synthetic peptide, bought: PSL (Peptide Specialty Laboratories)
B7: PEX13 SH3 domain (residues 261-346) (domain or fragment, human, UniProt Q92968 261-346, looked up)
chain: VTDSINWASGEDDHVVARAEYDFAAVSEEEISFRAGDMLNLALKEQQPKVRGWLLASLDGQTTGLIPANYVKILGKRKGRKTVESS
notes: 15N-labelled in the NMR titrations, unlabelled in ITC; source: E. coli BL21 (DE3), purified (Ni-NTA, SUMO cleavage, reverse Ni-NTA, SEC); not shown: His6-SUMO, N-terminal, cleaved
B8: PEX13 SH3 domain (domain or fragment, human)
chain: B7 chain
notes: the SH3-CTR construct begins at 261 and the crystallised chimeras end the SH3 part at 346; source: E. coli BL21 (DE3), purified (Ni-NTA, SUMO cleavage, reverse Ni-NTA, SEC)
B9: PEX13 FxxxF peptide (residues 350-403) (domain or fragment, human, UniProt Q92968 350-403, looked up)
chain: KQQQSFTNPTLTKGATVADSLDEQEAAFESVFVETNKVPVAPDSIGKDGEKQDL
notes: also called Pex13_FxF; source: E. coli BL21 (DE3), purified (Ni-NTA, SUMO cleavage, reverse Ni-NTA, SEC)
B10: PEX13 C-terminal peptide (351-403) with WT FxxxF motif (peptide)
chain: YGGQQQSFTNPTLTKGATVADSLDEQEAAFESVFVETNKVPVAPDSIGKDGEKQDL
notes: three residues added before residue 351; main text and some legends say 350-403; also called PEX13 FxxxF; FxxxF peptide (350-403); source: E. coli BL21 (DE3), purified (Ni-NTA, SUMO cleavage, reverse Ni-NTA, SEC); not shown: His6-SUMO, N-terminal, cleaved
B11: PEX13 C-terminal peptide (351-403) with the FxxxF motif replaced by the PEX5 W4 motif (peptide)
chain: B10 chain with F30W, E31Y, S32D, V33E, F34Y
notes: three residues added before residue 351; also called FF/W4; source: E. coli BL21 (DE3), purified (Ni-NTA, SUMO cleavage, reverse Ni-NTA, SEC); not shown: His6-SUMO, N-terminal, cleaved
B12: PEX5 W5 peptide (peptide)
peptide: AQAEQWAAEFIQQQG
notes: 15-mer with the W5 WxxxF motif of human PEX5; source: synthetic peptide, bought: PSL (Peptide Specialty Laboratories)
B13: PEX14 NTD (1-104) (domain or fragment, human, UniProt O75381 1-104, looked up)
chain: MASSEQAEQPSQPSSTPGSENVLPREPLIATAVKFLQNSRVRQSPLATRRAFLKKKGLTDEEIDMAFQQSGTAADEPSSLGPATQVVPVQPPHLISQPYSPAGS
notes: human PEX14, N-terminal domain, residues 1-104; also called PEX14 1-104; source: E. coli BL21 (DE3), purified (Ni-NTA, SUMO cleavage, reverse Ni-NTA, SEC); not shown: His6-SUMO, N-terminal, cleaved
B14: PEX14 NTD (1-104) (domain or fragment, human, UniProt O75381 1-104, looked up)
chain: B13 chain
notes: human PEX14 (UniProtKB O75381), N-terminal domain, residues 1-104; also called PEX14 (1-104); source: E. coli BL21 (DE3), purified (Ni-NTA, SUMO cleavage, reverse Ni-NTA, SEC)
B15: PEX14 NTD (1-104) (domain or fragment, human, UniProt O75381 1-104, looked up)
chain: B13 chain
notes: human PEX14 N-terminal domain, residues 1-104; also called PEX14 (1-104); source: E. coli BL21 (DE3), purified (Ni-NTA, SUMO cleavage, reverse Ni-NTA, SEC)
B16: PEX5 W7 peptide (peptide)
peptide: AEAHPWLSDYDDLTS
notes: 15-mer with the W7 (di)aromatic motif of human PEX5; source: synthetic peptide, bought: PSL (Peptide Specialty Laboratories GmbH)
B17: PEX5 W5 peptide (peptide)
peptide: AQAEQWAAEFIQQQG
notes: 15-mer with the W5 (di)aromatic motif of human PEX5; source: synthetic peptide, bought: PSL (Peptide Specialty Laboratories GmbH)

Tests used:
Settings in all cases: both partners purified
PEX14 NTD (1-104) [1] = biological target: B13; assay: ITC; PEX14 NTD (1-104) (20-60 µM) in the cell, titrated with PEX5 W peptides or W0 (0.4-0.6 mM), PEX13 FxxxF (0.46 mM) or PEX13 SH3-CTR (1 mM); 25 °C; 20 mM Tris pH 7.5, 50 mM NaCl; one-site binding model; PEX14 concentration corrected with the fit; triplicates
PEX14 NTD (1-104) [2] = biological target: B14; assay: ITC; PEX14 (1-104) (20-60 uM, concentration corrected with the fit) in the cell, peptide or fragment in the syringe; 25 °C, 20 mM Tris pH 7.5, 50 mM NaCl; one-site binding model; single runs of triplicates and their averages
PEX5 W4 peptide [3] = biological target: T2, PEX5 W4 peptide (human); assay: NMR titration; reduced (2 mM TCEP) 15N PEX13-CTR IA/CC with 4x and 8x PEX5 W4; 1H,15N correlation spectra
T2 construct: source: synthetic peptide, bought: PSL (Peptide Specialty Laboratories GmbH)

PEX5 W3 peptide [4] = biological target: T3, PEX5 W3 peptide (human); assay: ITC; PEX13 SH3 (35-48 µM) in the cell, titrated with peptide; 25 °C; 20 mM Tris pH 7.5, 50 mM NaCl; one-site binding model; triplicates
T3 construct: 15-mer with the W3 (di)aromatic motif of human PEX5; source: synthetic peptide, bought: PSL (Peptide Specialty Laboratories GmbH)

PEX5 W4 peptide [5] = biological target: T4, PEX5 W4 peptide (human); assay: ITC; PEX13 SH3 (35-48 uM) in the cell, peptide or fragment in the syringe; 25 °C, 20 mM Tris pH 7.5, 50 mM NaCl; one-site binding model; single runs of triplicates and their averages
T4 construct: 15-mer with the W4 WxxxY motif of human PEX5 (R183, Y185, Y188 are named in the text); source: synthetic peptide, bought: PSL (Peptide Specialty Laboratories)

PEX5 W2 peptide [6] = biological target: T5, PEX5 W2 peptide (human); assay: as above
T5 construct: 15-mer with the W2 WxxxF motif of human PEX5; source: synthetic peptide, bought: PSL (Peptide Specialty Laboratories)

PEX5 W3 peptide [7] = biological target: T6, PEX5 W3 peptide (human); assay: as above
T6 construct: 15-mer with the W3 WxxxY motif of human PEX5; source: synthetic peptide, bought: PSL (Peptide Specialty Laboratories)

PEX13 SH3 domain = biological target: B8; assay: as above
[8] = biological target: B7; assay: ITC; PEX13 SH3 (35-48 µM) in the cell, titrated with peptide; 25 °C; 20 mM Tris pH 7.5, 50 mM NaCl; one-site binding model; triplicates
PEX5 W2 peptide [9] = biological target: T7, PEX5 W2 peptide (human); assay: ITC; PEX14 NTD (1-104) (20-60 µM) in the cell, titrated with PEX5 W peptides or W0 (0.4-0.6 mM), PEX13 FxxxF (0.46 mM) or PEX13 SH3-CTR (1 mM); 25 °C; 20 mM Tris pH 7.5, 50 mM NaCl; one-site binding model; PEX14 concentration corrected with the fit; triplicates
T7 construct: 15-mer with the W2 (di)aromatic motif of human PEX5; source: synthetic peptide, bought: PSL (Peptide Specialty Laboratories GmbH)

PEX5 W3 peptide [10] = biological target: T3, PEX5 W3 peptide; assay: as above
PEX5 W4 peptide [11] = biological target: T2, PEX5 W4 peptide; assay: as above
PEX5 W4 peptide [12] = biological target: T4, PEX5 W4 peptide; assay: ITC; PEX14 (1-104) (20-60 uM, concentration corrected with the fit) in the cell, peptide or fragment in the syringe; 25 °C, 20 mM Tris pH 7.5, 50 mM NaCl; one-site binding model; single runs of triplicates and their averages
PEX5 W2 peptide [13] = biological target: T5, PEX5 W2 peptide; assay: as above
PEX5 W3 peptide [14] = biological target: T6, PEX5 W3 peptide; assay: as above
PEX5 W4 peptide [15] = biological target: T8, PEX5 W4 peptide (human); assay: ITC; PEX14 (1-104) at 20-60 µM titrated with PEX5 W peptides or W0 (0.4-0.6 mM), PEX13 FxxxF (0.46 mM) or PEX13 SH3-CTR (1 mM); 25 °C; 20 mM Tris pH 7.5, 50 mM NaCl; one-site model; PEX14 concentration corrected with the fit; triplicates
T8 construct: 15-mer with the W4 WxxxY motif of human PEX5 (R183, Y185, Y188 printed); also called PEX5 W4 motif; source: synthetic peptide, bought: PSL (Peptide Specialty Laboratories)

[16] = biological target: T1, PEX13 SH3-CTR (residues 261-403); assay: NMR titration; 15N-labelled PEX13 construct (100 µM reference) with unlabelled ligand added; 1H,15N correlation spectra; 298 K; 20 mM Tris pH 7.5, 50 mM NaCl
[17] = biological target: B7; assay: as above

B1
Kd (PEX14 NTD (1-104) [1]): 72.3 nM
stoichiometry N (PEX14 NTD (1-104) [1]): 1

B2
Kd (PEX14 NTD (1-104) [2]): 75.1 nM and 62.6 nM and 79.1 nM and 72.3 nM
stoichiometry N (PEX14 NTD (1-104) [2]): 1 sites

B3
binding result (PEX5 W4 peptide [3]): binds

B4
stoichiometry N (PEX14 NTD (1-104) [1]): 1

B5
stoichiometry N (PEX14 NTD (1-104) [2]): 1 sites

B6
stoichiometry N (PEX14 NTD (1-104) [2]): 1 sites

B7
Kd (PEX5 W3 peptide [4]): 102 µM

B8
Kd (PEX5 W4 peptide [5]): 44.9 µM and 48.5 µM and 36.9 µM
Kd (PEX5 W2 peptide [6]): 88.8 µM and 86.8 µM and 88.6 µM
Kd (PEX5 W3 peptide [7]): 112 µM and 92.3 µM

B9
Kd (PEX13 SH3 domain): 21.4 µM and 32.4 µM and 27 µM
stoichiometry N (PEX13 SH3 domain): 1 sites
Kd (PEX14 NTD (1-104) [2]): 3090 nM and 2230 nM and 3080 nM
stoichiometry N (PEX14 NTD (1-104) [2]): 1 sites

B10
Kd [8]: 26.9 µM
stoichiometry N [8]: 1

B11
Kd [8]: 6.4 µM
stoichiometry N [8]: 1

B12
Kd (PEX14 NTD (1-104) [2]): 17.2 nM and 18.8 nM and 25.5 nM and 20.5 nM
stoichiometry N (PEX14 NTD (1-104) [2]): 1 sites

B13
Kd (PEX5 W2 peptide [9]): 73.6 nM
Kd (PEX5 W3 peptide [10]): 136 nM
Kd (PEX5 W4 peptide [11]): 3.14 µM

B14
Kd (PEX5 W4 peptide [12]): 2.51 µM and 3.26 µM and 3.64 µM and 3.14 µM
Kd (PEX5 W2 peptide [13]): 70.4 nM and 69.1 nM and 81.2 nM and 73.6 nM
Kd (PEX5 W3 peptide [14]): 188 nM and 97.5 nM and 124 nM and 136 nM

B15
Kd (PEX5 W4 peptide [15]): 3.14 µM

TRVPPPILPRPSQ (peptide, UniProt Q92968 49-61, looked up) [PEX13 PxxP peptide (49-61)]
binding result [16]: binds
binding result [17]: binds

B16
stoichiometry N (PEX14 NTD (1-104) [1]): 1

B17
Kd (PEX14 NTD (1-104) [1]): 20.5 nM
stoichiometry N (PEX14 NTD (1-104) [1]): 1

— PMC11024197 (Nature Communications, 2024)
